{"source": "paper PMC13279940", "biological_target": "Pseudomonas aeruginosa QatC with C-terminal 6xHis tag (Pseudomonas aeruginosa)", "test": "mass photometry; Refeyn TwoMP; purified protein diluted to 200 nM in gel filtration buffer (20 mM HEPES-KOH pH 7.5, 250 mM KCl, 1 mM TCEP), 1 uL mixed into a 16 uL drop; QatA in the absence of DNA"}
{"substance": "Pseudomonas aeruginosa QatB (natural protein)", "values": [{"measurement": "stoichiometry N", "value": 1}]}
